For 57 sequences, Ka results are on record in publication PMC4858977.

Common to all, as to assay: MITOMI
One data set has as its target T1, RXRα (UniProt P28700).
T1 sequence: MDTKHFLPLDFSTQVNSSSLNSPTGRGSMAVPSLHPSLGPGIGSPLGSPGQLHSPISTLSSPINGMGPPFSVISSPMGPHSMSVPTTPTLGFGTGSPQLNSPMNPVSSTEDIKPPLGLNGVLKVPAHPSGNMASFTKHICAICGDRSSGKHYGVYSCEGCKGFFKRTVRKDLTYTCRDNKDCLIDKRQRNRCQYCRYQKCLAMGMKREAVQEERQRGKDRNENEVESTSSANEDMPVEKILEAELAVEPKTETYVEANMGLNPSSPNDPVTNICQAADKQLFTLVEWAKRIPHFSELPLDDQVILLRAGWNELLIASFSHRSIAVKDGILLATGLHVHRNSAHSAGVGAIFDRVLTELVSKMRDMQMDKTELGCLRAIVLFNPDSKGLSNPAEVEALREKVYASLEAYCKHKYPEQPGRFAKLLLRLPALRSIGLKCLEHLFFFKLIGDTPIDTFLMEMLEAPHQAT
The settings on record: On-chip MITOMI, 1 h equilibration; buffer, salt, pH and temperature not in the material (as ref. 23).

The target in the next data set is T2, PPARγ (UniProt P37238).
T2 sequence: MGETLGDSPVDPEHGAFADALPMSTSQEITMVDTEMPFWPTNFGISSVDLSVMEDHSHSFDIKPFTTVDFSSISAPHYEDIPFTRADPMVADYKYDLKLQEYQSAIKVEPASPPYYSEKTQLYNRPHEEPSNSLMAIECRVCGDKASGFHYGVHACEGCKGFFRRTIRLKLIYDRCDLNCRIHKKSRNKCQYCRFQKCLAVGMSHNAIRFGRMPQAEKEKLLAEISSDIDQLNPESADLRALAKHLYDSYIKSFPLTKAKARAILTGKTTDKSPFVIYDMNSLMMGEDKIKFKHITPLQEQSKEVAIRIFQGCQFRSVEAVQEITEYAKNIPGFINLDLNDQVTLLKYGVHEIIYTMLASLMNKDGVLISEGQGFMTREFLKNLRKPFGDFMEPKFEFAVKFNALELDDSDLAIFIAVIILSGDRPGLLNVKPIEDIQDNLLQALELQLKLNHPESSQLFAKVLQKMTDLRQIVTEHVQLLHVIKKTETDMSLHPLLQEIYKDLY
The settings on record: On-chip MITOMI, 1 h equilibration; buffer, salt, pH and temperature not in the material (as ref. 23).

Data set [1] concerns the target PPARγ;RXRα (Mus musculus?;Mus musculus?) (UniProt P37238+P28700). The conditions noted are these: KDoD from cooperative model; On-chip MITOMI, 1 h equilibration; buffer, salt, pH and temperature not in the material (as ref. 23).

Take “AAAATAGGTCAAAGGTCAAA (double strand) [PPRE C4A]”: in the data set with RXRα, the Ka was 1.64e+08 M⁻¹.
Regarding “AAACAAGGTCAAAGGTCAAA (double strand) [PPRE T5A]”, the Ka with RXRα was determined as 7.87e+07 M⁻¹.
With “AAACCAGGTCAAAGGTCAAA (double strand) [PPRE T5C]”, the Ka with RXRα stood at 3.82e+08 M⁻¹.
Still for that read-out and setting: then “AAACGAGGTCAAAGGTCAAA (double strand) [PPRE T5G]”, with 9.82e+07 M⁻¹; and “AAACTAAGTCAAAGGTCAAA (double strand) [PPRE G7A]”, with 7.36e+06 M⁻¹.
“AAACTACGTCAAAGGTCAAA (double strand) [PPRE G7C]”: in the data set with RXRα, the Ka was found to be 6.66e+06 M⁻¹.
Take “AAACTAGATCAAAGGTCAAA (double strand) [PPRE G8A]”: the Ka with RXRα turned out to be 4.91e+06 M⁻¹.
Take “AAACTAGCTCAAAGGTCAAA (double strand) [PPRE G8C]”: in the data set with RXRα, the Ka amounted to 980000 M⁻¹.
For the sequence “AAACTAGGACAAAGGTCAAA (double strand) [PPRE T9A]”, the Ka with RXRα was found to be 2.04e+06 M⁻¹.
On the same count and under the same terms, then “AAACTAGGCCAAAGGTCAAA (double strand) [PPRE T9C]”, with 5.86e+06 M⁻¹; and “AAACTAGGGCAAAGGTCAAA (double strand) [PPRE T9G]”, with 9.19e+06 M⁻¹.
Same read-out and setting: then “AAACTAGGTAAAAGGTCAAA (double strand) [PPRE C10A]”, with 3.42e+06 M⁻¹; and “AAACTAGGTCAAAAGTCAAA (double strand) [PPRE G14A]”, with 2.41e+06 M⁻¹.
Regarding “AAACTAGGTCAAACGTCAAA (double strand) [PPRE G14C]”, in the data set with RXRα, the Ka came to 860000 M⁻¹.
“AAACTAGGTCAAAGATCAAA (double strand) [PPRE G15A]”: in the data set with RXRα, the Ka was 2.73e+06 M⁻¹.
Take “AAACTAGGTCAAAGCTCAAA (double strand) [PPRE G15C]”: in the data set with RXRα, the Ka amounted to 218000 M⁻¹.
Regarding “AAACTAGGTCAAAGGACAAA (double strand) [PPRE T16A]”, the Ka with RXRα stood at 906000 M⁻¹.
For the sequence “AAACTAGGTCAAAGGCCAAA (double strand) [PPRE T16C]”, in the data set with RXRα, the Ka was 3.59e+06 M⁻¹.
“AAACTAGGTCAAAGGGCAAA (double strand) [PPRE T16G]”: in the data set with RXRα, the Ka was found to be 1.33e+07 M⁻¹.
The same measure, in the same setting: then “AAACTAGGTCAAAGGTAAAA (double strand) [PPRE C17A]”, with 4.39e+06 M⁻¹.
For “AAACTAGGTCAAAGGTCAAA (double strand) [PPRE]”, the Ka with PPARγ is 2.08e+06 M⁻¹; in data set [1], 1.46e+22 M-2; with RXRα, 1.98e+08 M⁻¹.
As for “AAACTAGGTCAAAGGTCAAC (double strand) [PPRE A20C]”, in the data set with RXRα, the Ka was 9.97e+08 M⁻¹.
Same read-out and setting: then “AAACTAGGTCAAAGGTCAAG (double strand) [PPRE A20G]”, with 1e+09 M⁻¹; and “AAACTAGGTCAAAGGTCAAT (double strand) [PPRE A20T]”, with 2.79e+08 M⁻¹; and “AAACTAGGTCAAAGGTCACA (double strand) [PPRE A19C]”, with 1.22e+08 M⁻¹.
For “AAACTAGGTCAAAGGTCAGA (double strand) [PPRE A19G]”, the Ka with RXRα turned out to be 1.1e+07 M⁻¹.
The same measure, in the same setting: then “AAACTAGGTCAAAGGTCATA (double strand) [PPRE A19T]”, with 3.78e+07 M⁻¹.
Same read-out and setting: then “AAACTAGGTCAAAGGTGAAA (double strand) [PPRE C17G]”, with 1.32e+07 M⁻¹.
Still for that read-out and setting: then “AAACTAGGTCAAAGTTCAAA (double strand) [PPRE G15T]”, with 4.44e+07 M⁻¹; and “AAACTAGGTCAAATGTCAAA (double strand) [PPRE G14T]”, with 5.14e+06 M⁻¹.
With “AAACTAGGTCAACGGTCAAA (double strand) [PPRE A13C]”, the Ka in the data set with RXRα was 1.05e+06 M⁻¹.
In the case of “AAACTAGGTCAAGGGTCAAA (double strand) [PPRE A13G]”, the Ka with RXRα worked out at 1.61e+07 M⁻¹.
Take “AAACTAGGTCAATGGTCAAA (double strand) [PPRE A13T]”: the Ka with RXRα came out at 398000 M⁻¹.
Same read-out and setting: then “AAACTAGGTCACAGGTCAAA (double strand) [PPRE A12C]”, with 7.95e+06 M⁻¹; and “AAACTAGGTCAGAGGTCAAA (double strand) [PPRE A12G]”, with 2.69e+07 M⁻¹.
“AAACTAGGTCATAGGTCAAA (double strand) [PPRE A12T]”: the Ka in the data set with RXRα worked out at 4.38e+07 M⁻¹.
Consider “AAACTAGGTCCAAGGTCAAA (double strand) [PPRE A11C]”, for which, in the data set with RXRα, the Ka was determined as 368000 M⁻¹.
As to “AAACTAGGTCGAAGGTCAAA (double strand) [PPRE A11G]”, the Ka with RXRα turned out to be 5.54e+06 M⁻¹.
Regarding “AAACTAGGTCTAAGGTCAAA (double strand) [PPRE A11T]”, the Ka with RXRα came to 802000 M⁻¹.
Consider “AAACTAGGTGAAAGGTCAAA (double strand) [PPRE C10G]”, for which the Ka in the data set with RXRα amounted to 2.66e+07 M⁻¹.
The same measure, in the same setting: then “AAACTAGGTTAAAGGTCAAA (double strand) [PPRE C10T]”, with 1.7e+07 M⁻¹; and “AAACTAGTTCAAAGGTCAAA (double strand) [PPRE G8T]”, with 2.54e+07 M⁻¹; and “AAACTATGTCAAAGGTCAAA (double strand) [PPRE G7T]”, with 9.75e+06 M⁻¹.
On to “AAACTCGGTCAAAGGTCAAA (double strand) [PPRE A6C]”, for which the Ka with RXRα stood at 8.8e+06 M⁻¹.
With “AAACTGGGTCAAAGGTCAAA (double strand) [PPRE A6G]”, in the data set with RXRα, the Ka turned out to be 1.73e+08 M⁻¹.
For “AAACTTGGTCAAAGGTCAAA (double strand) [PPRE A6T]”, the Ka in the data set with RXRα came out at 4.68e+06 M⁻¹.
As for “AAAGTAGGTCAAAGGTCAAA (double strand) [PPRE C4G]”, the Ka in the data set with RXRα is 1.38e+08 M⁻¹.
With “AAATTAGGTCAAAGGTCAAA (double strand) [PPRE C4T]”, in the data set with RXRα, the Ka came out at 2.59e+08 M⁻¹.
On to “AACCTAGGTCAAAGGTCAAA (double strand) [PPRE A3C]”, for which, in the data set with RXRα, the Ka came out at 1.25e+08 M⁻¹.
For “AAGCTAGGTCAAAGGTCAAA (double strand) [PPRE A3G]”, in the data set with RXRα, the Ka stood at 5.27e+07 M⁻¹.
In the case of “AATCTAGGTCAAAGGTCAAA (double strand) [PPRE A3T]”, the Ka with RXRα came to 1.98e+08 M⁻¹.
Consider “ACACTAGGTCAAAGGTCAAA (double strand) [PPRE A2C]”, for which the Ka in the data set with RXRα is 4.33e+07 M⁻¹.
Turning to “AGACTAGGTCAAAGGTCAAA (double strand) [PPRE A2G]”, in the data set with RXRα, the Ka worked out at 2.05e+08 M⁻¹.
Consider “ATACTAGGTCAAAGGTCAAA (double strand) [PPRE A2T]”, for which the Ka in the data set with RXRα worked out at 1.45e+08 M⁻¹.
Consider “CAACTAGGTCAAAGGTCAAA (double strand) [PPRE A1C]”, for which the Ka in the data set with RXRα worked out at 1.17e+08 M⁻¹.
The same measure, in the same setting: then “GAACTAGGTCAAAGGTCAAA (double strand) [PPRE A1G]”, with 1e+08 M⁻¹.
Consider “TAACTAGGTCAAAGGTCAAA (double strand) [PPRE A1T]”, for which the Ka with RXRα came out at 1.01e+08 M⁻¹.
